For experiment [1], the target named is T1, HSP70 (human HSP70; the antigen of the binning, humanization and variant binding assays) (human, UniProt P0DMV8 1-641, limits assumed).
T1 construct: also called hu HSP70
As to the kind of experiment: BLI, anti-human Fc capture, antigen 100 nM. In a few lines: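 Antibody variants captured on anti-human Fc biosensors at […]; antigen at 100 nM flowed over, 25° C. Captured antigen recorded at 610 s (start of dissociation) and 1495 s (end of dissociation), giving % dissociation.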
On the technique in general: Biolayer interferometry detects binding as a change in optical thickness at a sensor tip.

The target of experiment [2] is T1, HSP70 (human HSP70; the antigen of the …). As to the kind of experiment: BLI, anti-human Fc capture, antigen dilution series, 1:1 fit. How it is done: (§1) Further kinetics assays were conducted for select antibody variants. Assays were performed as follows. Antibody variants were immobilized using anti-human Fc onto the surface of a series of biosensors. Antigen was passed over the surface to generate a binding response. Binding data for the antibody: antigen interactions were collected at 25° C. on the biosensors. A dilution series of the antigen was used in the association step, in order to fit results globally and get the best values for ka, kd, and KD. The response data for the binding of antigen to the surface immobilized antibody were fitted to a 1:1 binding model.

Experiment [3] shares this target. As to the kind of experiment: BLI, anti-human Fc capture, steady state. The protocol:
as §1

T1 sequence (P0DMV8 whole entry, change not shown): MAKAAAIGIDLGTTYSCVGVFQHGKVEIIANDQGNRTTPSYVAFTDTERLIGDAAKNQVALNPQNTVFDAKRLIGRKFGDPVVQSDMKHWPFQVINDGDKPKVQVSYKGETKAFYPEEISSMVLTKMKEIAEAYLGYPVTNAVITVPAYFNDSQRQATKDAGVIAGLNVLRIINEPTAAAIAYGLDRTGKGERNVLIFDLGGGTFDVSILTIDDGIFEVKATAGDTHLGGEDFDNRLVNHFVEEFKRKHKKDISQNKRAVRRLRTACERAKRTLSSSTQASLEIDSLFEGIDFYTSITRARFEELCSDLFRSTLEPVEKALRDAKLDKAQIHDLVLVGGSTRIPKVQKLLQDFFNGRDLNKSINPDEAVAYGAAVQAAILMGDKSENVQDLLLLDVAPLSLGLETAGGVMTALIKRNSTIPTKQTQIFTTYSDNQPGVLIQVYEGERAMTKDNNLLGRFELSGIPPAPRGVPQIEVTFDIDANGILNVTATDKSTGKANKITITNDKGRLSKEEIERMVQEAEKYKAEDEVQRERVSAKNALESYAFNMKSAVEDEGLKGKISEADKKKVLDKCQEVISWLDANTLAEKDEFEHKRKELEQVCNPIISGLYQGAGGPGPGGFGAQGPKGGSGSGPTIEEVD

B1: h77A-1.1 (antibody, V domains shown)
VH: QIQLVQSGAEVKKPGASVKVSCKASGYTFTKYGMNWVRQAPGQGLEWMGWINTYTGEPTYADDFKGRFTFTTDTSTSTAYMELRSLRSDDTAVYFCARYDHAMDYWGQGTLVTVSS
VL: EIVLTQSPDSLAVSLGERATINCKSSQSLLNSGTRKNYLAWYQQKAGQSPKLLIYWTSTRESGVPDRFSGSGSGTDFTLTIDSLQAEDVAVYYCKQSYTLYTFGGGTKVEIK
notes: captured by anti-human Fc
For the molecule B1, in experiment [1], the “% Diss” value stood at 3.88%. In addition, in experiment [2], the Kd is 0.69 nM, the off-rate (koff) stood at 6.11e-05 s⁻¹ and the on-rate constant (kon) was 88500 M⁻¹ s⁻¹. The “KD Steady State” value in experiment [3] was found to be 0.032 nM.

B2: h77A-1.8 (antibody, V domains shown)
VH: QIQLVQSGAEVKKPGASVKVSCKASGYTFTNYGMNWVRQAPGQGLEWMGWINTYTGEPTYADDFKGRFTFTTDTSTSTAYMELRSLRSDDTAVYFCARYDHAMDYWGQGTLVTVSS
VL: EIVLTQSPDSLAVSLGERATIKCKSSQSLLNSGTRKNYLAWYQQKAGQSPKLLIYWTSTRESGVPDRFSGSGSGTDFTLTIDSLQAEDVAVYYCKQSYTLYTFGGGTKVEIK
notes: captured by anti-human Fc
For B2, the “% Diss” value in experiment [1] came to 8.62%. In experiment [2], this molecule returned a Kd of 1.35 nM, a dissociation rate constant (koff) of 7.42e-05 s⁻¹ and a kon of 54800 M⁻¹ s⁻¹. The “KD Steady State” value in experiment [3] is 0.31 nM.

B3: h77A-1.14 (antibody, V domains shown)
VH: QIQLVQSGAEVKKPGASVKVSCKASGYTFTNYGMNWVRQAPGQGLEWMGWINTYTGEPTYTDDFKGRFTFTTDTSTSTAYMELRSLRSDDTAVYFCARYDHAMDYWGQGTLVTVSS
VL: EIVLTQSPDSLAVSLGERATINCKSSQSLLNSGTRKNYLAWYQQKAGQSPKLLIYWTSTRESGVPDRFSGSGSGTDFTLTIDSLQAEDVAVYYCKQSYTLYTFGGGTKVEIK
notes: captured by anti-human Fc
Consider B3, for which the “% Diss” value in experiment [1] is 7.88%. For the same molecule, in experiment [2], the affinity, expressed as Kd, was 1.97 nM; the koff turned out to be 0.000124 s⁻¹; the kon was 63100 M⁻¹ s⁻¹. Also, the “KD Steady State” value in experiment [3] amounted to 0.77 nM.

B4: h77A-1.19 (antibody, V domains shown)
VH: QIQLVQSGAEVKKPGASVKVSCKASGYTFTNYGMNWVRQAPGQGLEWMGWINTYTGEPTYVDDFKGRFTFTTDTSTSTAYMDLRSLRSDDTAVYFCARYDHAMDYWGQGTLVTVSS
VL: EIVLTQSPDSLAVSLGERATINCKSSQSLLNSGTRKNYLAWYQQKAGQSPKLLIYWTSTRESGVPDRFSGSGSGTDFTLTIDSLQAEDVAVYYCKQSYTLYTFGGGTKVEIK
notes: captured by anti-human Fc
Consider B4, for which the “% Diss” value in experiment [1] is 8.73%. In experiment [2], this molecule displayed a Kd of 1.26 nM, a koff of 0.000111 s⁻¹ and a kon of 88500 M⁻¹ s⁻¹. In addition, the “KD Steady State” value in experiment [3] was 1.2 nM.

B5: h77A-1.22 (antibody, V domains shown)
VH: QIQLVQSGAEVKKPGASVKVSCKASGYTFTNYGMNWVRQAPGQGLEWMGWINTYTGEPTYSDDFKGRFTFTTDTSTSTAYMELRSLRSDDTAVYFCARYDHAMDYWGQGTLVTVSS
VL: EIVLTQSPDSLAVSLGERATINCKSSQSLFNSGTRKNYLAWYQQKAGQSPKLLIYWTSTRESGVPDRFSGSGSGTDFTLTIDSLQAEDVAVYYCKQSYTLYTFGGGTKVEIK
notes: captured by anti-human Fc
Turning to B5, in experiment [1], the “% Diss” value is 6.5%. In experiment [2], this molecule yielded a dissociation constant (Kd) of 1.14 nM, a koff of 7.64e-05 s⁻¹ and a kon of 66900 M⁻¹ s⁻¹. In experiment [3], the “KD Steady State” value was found to be 0.81 nM.

B6: h77A-1.16 (antibody, V domains shown)
VH: QIQLVQSGAEVKKPGASVKVSCKASGYTFTKYGMNWVRQAPGQGLEWMGWINTYTGEPTYADDFKGRFTFTTDTSTSTAYMELRSLRSDDTAVYFCARYDHAMDYWGQGTLVTVSS
VL: EIVLTQSPDSLAVSLGERATIKCKSSQSLLNSGTRKNYLAWYQQKAGQSPKLLIYWTSTRESGVPDRFSGSGSGTDFTLTIDSLQAEDVAVYYCKQSYTLYTFGGGTKVEIK
notes: captured by anti-human Fc
For the molecule B6, the “% Diss” value in experiment [1] came out at 3.25%. In experiment [2], this molecule showed a Kd of 1.27 nM, a koff of 6.84e-05 s⁻¹ and a kon of 54000 M⁻¹ s⁻¹. Further, in experiment [3], the “KD Steady State” value was determined as 1.3 nM.

B7: h77A-1.10 (antibody, V domains shown)
VH: QIQLVQSGDEVKKPGASVKVSCKASGYTFTNYGMNWVRQAPGQGLEWMGWINTYTGEPTYADDFKGRFTFTTDTSTSTAYMELRSLRSDDTAVYFCARYDHAMDYWGQGTLVTVSS
VL: EIVLTQSPDSLAVSLGERATINCKSSQSLLNSGTRKNYLAWYQQKAGQSPKLLIYWTSTRESGVPDRFSGSGSGTDFTLTIDSLQAEDVAVYYCKQSYTLYTFGGGTKVEIK
notes: captured by anti-human Fc
Turning to B7, the “% Diss” value in experiment [1] was determined as 8.76%. Also, in experiment [2], the Kd came out at 2.48 nM, the koff came out at 0.000145 s⁻¹ and the association rate constant (kon) stood at 58400 M⁻¹ s⁻¹. Also, the “KD Steady State” value in experiment [3] worked out at 2.6 nM.

B8: h77A-1.18 (antibody, V domains shown)
VH: QIQLVQSGAEVKKPGASVKVSCKASGYTFTNYGMNWVRQAPGQGLEWMGWINTYTGEPTYADDFKGRFTFTTDTSTRTAYMELRSLRSDDTAVYFCARYDHAMDYWGQGTLVTVSS
VL: EIVLTQSPDSLAVSLGERATINCKSSQSLLNSGTRKNYLAWYQQKAGQSPKLVIYWTSTRESGVPDRFSGSGSGTDFTLTIDSLQAEDVAVYYCKQSYTLYTFGGGTKVEIK
notes: captured by anti-human Fc
With B8, in experiment [1], the “% Diss” value turned out to be 7.15%. Besides, in experiment [2], the Kd is 1.44 nM, the koff came out at 9.1e-05 s⁻¹ and the kon came to 63200 M⁻¹ s⁻¹. The “KD Steady State” value in experiment [3] is 0.81 nM.

B9: h77A-1.17 (antibody, V domains shown)
VH: QIQLVQSGAEVKKPGASVKVSCKASGYTFTKYGMNWVRQAPGQGLEWMGWINTYTGEPTYADDFKGRFTFTTDTSTSTAYMELRSLRSDDTAVYFCARYDHSMDYWGQGTLVTVSS
VL: EIVLTQSPDSLAVSLGERATINCKSSQSLLNSGTRKNYLAWYQQKAGQSPKLLIYWTSTRESGVPDRFSGSGSGTDFTLTIDSLQAEDVAVYYCKQSYTLYTFGGGTKVEIK
notes: captured by anti-human Fc
In the case of B9, the “% Diss” value in experiment [1] came out at 7.04%. For the same molecule, in experiment [2], binding was put at a Kd of 1.51 nM, the koff came out at 9.24e-05 s⁻¹ and the kon was 61400 M⁻¹ s⁻¹. The “KD Steady State” value in experiment [3] was determined as 1.3 nM.

B10: h77A-1.12 (antibody, V domains shown)
VH: QIQLVQSGAEVKKPGASVKVSCKASGYTFTNYGMNWVRQAPGQGLEWMGWINTYTGEPTYADDFKGRFTFTTDTSTSTAYMELRSLRSDDTAVYFCARYDHAMDYWGQGTLVTVSS
VL: EIVLTQSPDSLAVSLGERATINCKSSQSLFNSGTRKNYLAWYQQKAGQSPKLLIYWTSTRESGVPDRFSGSGSGTDFTLTIDSLQAEDVAVYYCKQSYTLYTFGGGTKVEIK
notes: captured by anti-human Fc
Consider B10, for which the “% Diss” value in experiment [1] was 4.74%. In experiment [2], this molecule displayed a Kd of 1.43 nM, a koff of 7.37e-05 s⁻¹ and a kon of 51700 M⁻¹ s⁻¹. Moreover, in experiment [3], the “KD Steady State” value worked out at 1.1 nM.

B11: h77A-1.6 (antibody, V domains shown)
VH: QIQLVQSGAEVKKPGASVKVSCKASGYTFTNYGMNWVRQAPGQGLEWMGWINTYTGEPTYADDFKGRFTFTTDTSTRTAYMELRSLRSDDTAVYFCARYDHAMDYWGQGTLVTVSS
VL: EIVLTQSPDSLAVSLGERATINCKSSQSLLNSGTRKNYLAWYQQKAGQSPKLLIYWTSTRESGVPDRFSGSGSGTDFTLTIDSLQAEDVAVYYCKQSYTLYTFGGGTKVEIK
notes: captured by anti-human Fc
Consider B11, for which the “% Diss” value in experiment [1] stood at 6.58%. In experiment [2], this molecule yielded a Kd of 2.11 nM, a koff of 0.000114 s⁻¹ and a kon of 54200 M⁻¹ s⁻¹. Further, the “KD Steady State” value in experiment [3] was determined as 1.8 nM.

The Kd is the equilibrium constant for the complex coming apart. Low values mean a tighter complex, high ones a looser complex. In general, koff refers to the rate constant with which the complex falls apart. As a reminder, the kon is the second-order rate constant of association. A higher kon goes with fast association.

The values above are taken from patent US20250084155A1 (University of Texas, published 2025).
